In patent publication EP1165781B1 (ELI LILLY AND COMPANY, dated 2007):

T1: FLINT (FAS Ligand Inhibitory Protein), mature human FLINT (human, UniProt O95407 30-300)
T1 construct: also called mature FLINT; native FLINT
T1 sequence: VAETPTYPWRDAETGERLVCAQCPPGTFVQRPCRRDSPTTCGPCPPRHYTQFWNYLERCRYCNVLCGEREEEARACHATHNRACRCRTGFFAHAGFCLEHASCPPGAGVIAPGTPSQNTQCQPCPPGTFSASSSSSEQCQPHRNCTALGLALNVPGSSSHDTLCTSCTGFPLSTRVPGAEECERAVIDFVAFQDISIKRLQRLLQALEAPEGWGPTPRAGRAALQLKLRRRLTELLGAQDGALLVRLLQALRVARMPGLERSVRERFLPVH


Tests used:
[1] = biological target: FasLigand (monomer) (Homo sapiens (Human)) (UniProt P48023); experiment: SPR (Biacore 2000), FasL amine-coupled to CM5 chip, Fas in solution
[2] = biological target: T1, FLINT (FAS Ligand Inhibitory Protein), …; experiment: SPR (Biacore 2000), FasL amine-coupled to CM5 chip, FLINT in solution

Chain of Fas/Fc chimera (R&D Systems) (Fc fusion) (P25445 26-173, change not shown): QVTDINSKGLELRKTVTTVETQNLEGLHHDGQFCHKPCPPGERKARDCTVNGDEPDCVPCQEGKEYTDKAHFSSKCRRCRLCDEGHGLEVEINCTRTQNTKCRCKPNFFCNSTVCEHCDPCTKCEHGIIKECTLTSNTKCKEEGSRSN

Row | Molecule | Kd [1] [nM] | Kd [2] [nM]
1 | Fas/Fc chimera (R&D Systems) (Fc fusion) | 162 | 
2 | FasLigand (monomer) (ligand, Amine-coupled through lysines to a CM5 chip., Amine-coupled to a CM5 chip; also called Fas Ligand (Kamiya Biomedical Company)) QLFHLQKELAELRESTSQMHTASSLEKQIGHPSPPPEKKELRKVAHLTGKSNSRSMPLEWEDTYGIVLLSGVKYKKGGLVINETGLYFVYSKVYFRGQSCNNLPLSHKVYMRNSKYPQDLVMMEGKMMSYCTTGQMWARSSYLGAVFNLTSADHLYVNVSELSLVNFEESQTFFGLYKL |  | 113
